From paper doi:10.1101/2023.04.10.536218 come the findings set out here.

As a reminder, the stoichiometry N is a count of units in the complex or per binding partner.

In this assay the target is major capsid protein VP1 of sheep polyomavirus (ShPyV) (sheep polyomavirus (ShPyV)). Description: crystal structure.

The substance “major capsid protein VP1 of sheep polyomavirus (ShPyV) (natural protein)” displayed a stoichiometry N of 5.
